The test has as its target T1, Recombinant human CD40L (human, UniProt P29965 108-261, limits assumed).
T1 construct: also called CD40 ligand
T1 sequence (looked up): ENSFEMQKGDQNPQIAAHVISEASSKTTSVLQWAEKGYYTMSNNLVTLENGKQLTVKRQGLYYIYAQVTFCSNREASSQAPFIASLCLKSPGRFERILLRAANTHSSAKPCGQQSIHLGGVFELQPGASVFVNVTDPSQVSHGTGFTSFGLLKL
As to the kind of experiment: CD40L/CD40-Fc receptor binding assay.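 Note: plate assay with coated human CD40-Fc, bound ligand detected via HRP anti-biotin antibody and TMB, OD at 450 nm, lower signal indicates stronger inhibition by dAb.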

B1: DOM.194 (other)
VH: EVQLLESGGGLVQPGGSLRLSCAASGFTFKQYDMRWVRQAPGKGLEWVSTISQNGTKTYYADSVKGRFTISRDNSKNTLYLQMNSLRAEDTAVYYCAKSRTGRYFDYWGQGTLVTVSS
notes: VH dAb
B1: the binding result is given as “binds”.

B2: DOM.145 (other)
VL: DIQMTQSPSSLSASVGDRVTITCRASQTIYTSLSWYQQKPGKAPKLLIHYGSVLQSGVPSRFSGSGSGTDFTLTISSLQPEDSATYYCQQVHQAPTTFGQGTKVEIKR
notes: Vk dAb
As to B2, the binding result was “binds”.

B3: DOM.189 (other)
VH: EVQLLESGGGLVQPGGSLRLSCAASGFTFQMYPMGWVRQAPGKGLEWVSMIEPAGDLTYYADSVKGRFTISRDNSKNTLYLQMNSLRAEDTAVYYCAKYQEQPWFDYWGQGTLVTVSS
notes: VH dAb
As to B3, the binding result is listed as “binds”.

B4: DOM.195 (other)
VH: EVQLLESGGGLVQPGGSLRLSCAASGFTFGTYDMGWVRQAPGKGLEWVSRINWQGDRTYYADSVKGRFTISRDNSKNTLYLQMNSLRAEDTAVYYCAKAGFGHYVDGLGFDYWGQGTLVTVSS
notes: VH dAb
Take B4: the binding result was “binds”.

B5: DOM.133 (other)
VH: EVQLLESGGGLVQPGGSLRLSCAASGFTFIGYAMAWVRQAPGKGLEWVSSIGPLGATTYYADSVKGRFTISRDNSKNTLYLQMNSLRAEDTAVYYCAKLPAGTSSHSVDFDYWGQGTLVTVSS
notes: VH dAb
With B5, the binding result is “binds”.

B6: DOM.202 (other)
VH: EVQLLESGGGLVQPGGSLRLSCTASGFTFSHYEMGWVRQAPGKGLEWVSSIEPFGGGTYYADSVKGRFTISRDNSKNTLYLQMNSLRAEDTAVYYCAKVYPQGSFDYWGQGTLVTVSS
notes: VH dAb
As for B6, the binding result was “binds”.

B7: DOM.176 (other)
VH: EVQLLESGGGLVQPGGSLRLSCAASGFTFDAYEMGWVRQAPGKGLEWVSIIDWDGNSTYYADSVKGRFTISRDNSKNTLYLQMNSLRAEDTAVYYCAKPGDNVGIFDYWGQGTLVTVSS
notes: VH dAb
B7: the binding result is listed as “binds”.

B8: DOM.136 (other)
VH: EVQLLESGGGLVQPGGSLRLSCAASGFTFDGYRMGWVRQAPGKGLEWVSSIAPDGNYTYYADSVKGRFTISRDNSKNTLYLQMNSLRAEDTAVYYCAKFWGMQFDYWGQGTLVTVSS
notes: VH dAb
B8: the binding result was “binds”.

B9: DOM.139 (other)
VH: EVQLLESGGGLVQPGGSLRLSCAASGFTFSNYEMGWVRQAPGKGLEWVSVISEVGSLTYYADSVKGRFTISRDNSKNTLYLQMNSLRAEDTAVYYCAKPHDSSIGFDYWGQGTLVTVSS
notes: VH dAb
For the molecule B9, the binding result was “binds”.

B10: DOM.181 (other)
VH: EVQLLESGGGLVQPGGSLRLSCAASGFTFAFYPMMWVRQAPGKGLEWVSWIDATGTRTYYADSVKGRFTISRDNSKNTLYLQMNSLRAEDTAVYYCAEGNYGSSYTMGVFDYWGQGTLVTVSS
notes: VH dAb
For B10, the binding result is listed as “binds”.

B11: DOM.191 (other)
VH: EVQLLESGGGLVQPGGSLRLSCAASGFTFKLYPMTWVRQAPGKGLEWVSSIDAGGHETYYADSVKGRFTISRDNSKNTLYLQMNSLRAEDTAVYYCAKDWWDYLFDYWGQGTLVTVSS
notes: VH dAb
Take B11: the binding result is listed as “binds”.

B12: DOM.204 (other)
VH: EVQLLESGGGLVQPGGSLRLSCAASGFTFKRYSMAWVRQAPGKGLEWVSDIGPRGFSTYYADSVKGRFTISRDNSKNTLYLQMNSLRAEDTAVYYCAKVGRGQRDTSQPFDYWGQGTLVTVSS
notes: VH dAb
As for B12, the binding result is “binds”.

B13: DOM.185 (other)
VH: EVQLLESGGGLVQPGGSLRLSCAASGFTFAHYPMSWVRQAPGKGLEWVSSIGRLGNRTYYADSVKGRFTISRDNSKNTLYLQMNSLRAEDTAVYYCAKRATPVPIKGLFDYWGQGTLVTVSS
notes: VH dAb
With B13, the binding result is on record as “binds”.

B14: DOM.199 (other)
VH: EVQLLESGGGLVQPGGSLRLSCAASGFTFERYGMTWVRQAPGKGLEWVSSIWPRGQKTYYADSVKGRFTISRDNSKNTLYLQMNSLRAEDTAVYYCAKGNSRYVFDYWGQGTLVTVSS
notes: VH dAb
Take B14: the binding result was “binds”.

B15: DOM.138 (other)
VH: EVQLLESGGGLVQPGGSLRLSCAASGFTFLAYWMVWVRQAPGKGLEWVSSISPSGTHTYYADSVKGRFTISRDNSKNTLYLQMNSLRVEDTAVYYCAKYTEPGLGSFDYWGQGTLVTVSS
notes: VH dAb
As to B15, the binding result is listed as “binds”.

B16: DOM.132 (other)
VH: EVQLLESGGGLVQPGGSLRLSCAASGFTFADYDMAWVRQAPGKGLEWVSGIVDDGLMTYYADSVKGRFTISRDNSKNTLYLQMNSLRAEDTAVYYCAKPDVAFDYWGQGTLVTVSN
notes: VH dAb
Consider B16, for which the binding result was “binds”.

B17: DOM.197 (other)
VH: EVQLLESGGGLVQPGGSLRLSCAASGFTFAKYKMWWVRQAPGKGLEWVSSITPKGHSTYYADSVKGRFTISRDNSKNTLYLQMNSLRAEDTAVYYCAKRPMTPFDYWGQGTLVTVSS
notes: VH dAb
B17: the binding result is given as “binds”.

B18: DOM.135 (other)
VH: EVQLLESGGGLVQPGGSLRLSCAASGFTFRRYVMGWVRQAPGKGLEWVSWIEADGRTTYYADSVKGRFTISRDNSKNTLYLQMNSLRAEDTAVYYCAKGLTDQHVIEFDYWGQGTLVTVSS
notes: VH dAb
Regarding B18, the binding result is recorded as “binds”.

B19: DOM.200 (other)
VH: EVQLLESGGGLVQPGGSLRLSCAASGFTFTNYSMGWVRQAPGKGLEWVSTIRPNGTKTYYADSVKGRFTISRDNSKNTLYLQMNSLRAEDTAVYYCAKRSSAHLQRFDYWGQGTLVTVSS
notes: VH dAb
With B19, the binding result was “binds”.

B20: DOM.201 (other)
VH: EVQLLESGGGLVQPGGSLRLSCAASGFTFGNYSMGWVRQAPGKGLEWVSSIGRHGGRTYYADSVKGRFTISRDNSKNTLYLQMNSLRAEDTAVYYCAKKGSTYPRFDYWGQGTLVTVSS
notes: VH dAb
Regarding B20, the binding result is listed as “binds”.

B21: DOM.198 (other)
VH: EVQLLESGGGLVQPGGSLRLSCAASGFTFERYNMSWVRQAPGKGLEWVSSIRPRGGKTYYADSVKGRFTISRDNSKNTLYLQMNSLRAEDTAVYYCAKWRREGYTGSKFDYWGQGTLVTVSS
notes: VH dAb
In the case of B21, the binding result is on record as “binds”.

B22: DOM.188 (other)
VH: EVQLLESGGGLVQPGGSLRLSCAASGFTFTRYRMSWVRQAPGKGLEWVSGISRDGYRTYYADSVKGRFTISRDNSKNTLYLQMNSLRAEDTAVYYCAKGMTASFDYWGQGTLVTVSS
notes: VH dAb
For the molecule B22, the binding result is listed as “binds”.

B23: DOM.192 (other)
VH: EVQLLESGGGLVQPGGSLRLSCAASGFTFSRYPMSWVRQAPGKGLEWVSSINRSGMRTYYADSVKGRFTISRDNSKNTLYLQMNSLRAEDTAVYYCAEGHQAPFDYWGQGTLVTVSS
notes: VH dAb
For the molecule B23, the binding result is “binds”.

B24: DOM.187 (other)
VH: EVQLLESGGGLVQPGGSLRLSCAASGFTFSSYSMVWVRQAPGKGLEWVSGINRGGTRTYYADSVKGRFTISRDNSKNTLYLQMNSLRAEDTAVYYCAKGWRRGFDYWGQGTLVTVSS
notes: VH dAb
With B24, the binding result is given as “binds”.

B25: DOM.141 (other)
VL: DIQMTQSPSSLSASVGDRVTITCRASQWIGDTLTWYQQKLGKAPKLLIYGGSELQSGVPPRFSGSGSGTDFTLTISSLQPEDFATYYCQQCISSPCTFGQGTKVEIKR
notes: Vk dAb
Take B25: the binding result is “binds”.

B26: DOM.137 (other)
VH: EVQLLESGGGLVQPGGSLRLSCAASGFTFASYPMGWVRQAPGKGLEWVSSIGPIGFTTYYADSVKGRFTISRDNSKNTLYLQMNSLRAEDTAVYYCAEMKSPYKPQFDYWGQGTLVTVSS
notes: VH dAb
B26: the binding result was “binds”.

B27: DOM.149 (other)
VL: DIQMTQSPSSLSASVGDRVTITCRASQWIGRQLVWYQQKPGKAPKLLIYGATELQSGVPSRFSGSGSGTDFTLTISSLQPEDFATYYCQQQSKGPLTFGHGTKVEIKR
notes: Vk dAb
Turning to B27, the binding result was “binds”.

B28: DOM.203 (other)
VH: EVQLLESGGGLVQPGGSLRLSCAASGFTFSNYTMGWVRQAPGKGLEWVSSIRPDGKITYYADSVKGRFTISRDNSKNTLYLQMNSLRAEDTAVYYCAEVYSSCAMCTPLLFDYWGQGTLVTVSS
notes: VH dAb
As for B28, the binding result was “binds”.

B29: DOM.183 (other)
VH: EVQLLESGGGLVQPGGSLRLSCAASGFTFADYGMGWVRQAPGKGLEWVSSIQSSGLRTYYADSVKGRFTISRDNSKNTLYLQMNSLRAEDTAVYYCAKRANSRRGFDYWGQGTLVTVSS
notes: VH dAb
As for B29, the binding result is reported as “binds”.

B30: DOM.182 (other)
VH: EVQLLESGGGLVQPGGSLRLSCAASGFTFDEYPMYWVRQAPGKGLEWVSSIGPSGPNTYYADSVKGRFTISRDNSKNTLYLQMNSLRAEDTAVYYCAKSPYFDVIPSYFDYWGQGTLVTVSS
notes: VH dAb
In the case of B30, the binding result was “binds”.

B31: DOM.177 (other)
VH: EVQLLESGGGLVQPGGSLRLSCAASGFTFSNYYMVWVRQAPGKGLEWVSAIDEWGFATYYADSVKGRFTISRDNSKNTLYLQMNSLRAEDTAVYYCAKHWEFTSDTSRFDYWGQGTLVTVSS
notes: VH dAb
In the case of B31, the binding result was “binds”.

B32: DOM.146 (other)
VL: DIRMTQSPSSLSASVGDRVTITCRASQWIGDSLAWYQQKPGKAPKLLIYGISELQSGVPSRFSGSGSGTDFTLTISSLQPEDSATYYCQLSSSMPHTFGQGTKVEIKR
notes: Vk dAb
For the molecule B32, the binding result was “binds”.

Source of the values: patent US20090297524A1 (DOMANTIS, published 2009).
